Laboratory results reported in the RNAGym collection of RNA variant scans (doi:10.7554/elife.80360).

B1: HDV Ribozyme (parent)
chain: GGCCGGCAUGGUCCCAGCCUCCUCGCUGGCGCCGGCUGGGCAACAUUCCGAGGGGACCGUCCCCUCGGUAAUGGCGAAUGGGACCCA

Variants of: B1
Experiment: self-cleavage, relative activity (ratio to wild type); higher = more cleavage; co-transcriptional

Q: Which self-cleavage does the source give for GGCCGGCAUGGUCCCAGCCUCCUCGCUGGCGCCGGUUGGGCAACAUUCCGAGGGGACAGUCCCCUCGGUAAUGGCGAAUGGGACCCA [C36U C58A] here?
A: 0.964

Q: Which self-cleavage does the source give for GGCCGGCAUGGUCCCAGCCUCCUCGCUGGCGCCGGGUGGGCAACAUUCCGAGGGGACCGUCCCCUCGGUAACGGCGAAUGGGACCCA [C36G U72C] here?
A: 0.0462

Q: Which self-cleavage does the source give for GGCCGGCAUGGUCCCAGCCUCCUCGCUGGCGCCGGGUGGGCAACAUUCCGAGGGGACCGUCCCCUCGGUAAAGGCGAAUGGGACCCA [C36G U72A] here?
A: 0.138

Q: Which self-cleavage does the source give for GGCCGGCAUGGUCCCAGCCUCCUCGCUGGCGCCGGUUGGGCAACAUUCCGAGGGGCCCGUCCCCUCGGUAAUGGCGAAUGGGACCCA [C36U A56C] here?
A: 0.888

Q: For GGCCGGCAUGGUCCCAGCCUCCUCGCUGGCGCCGGUUGGGCAAUAUUCCGAGGGGACCGUCCCCUCGGUAAUGGCGAAUGGGACCCA [C36U C44U], which self-cleavage is on record?
A: 0.197

Q: Which self-cleavage does the source give for GGCCGGCAUGGUCCCAGCCUCCUCGCUGGCGCCGGUUGGGCAAAAUUCCGAGGGGACCGUCCCCUCGGUAAUGGCGAAUGGGACCCA [C36U C44A] here?
A: 0.166

Q: Which self-cleavage does the source give for GGCCGGCAUGGUCCCAGCCUCCUCGCUGGCGCCGGUUGGGCAACAUUCAGAGGGGACCGUCCCCUCGGUAAUGGCGAAUGGGACCCA [C36U C49A] here?
A: 0.795

Q: With GGCCGGCAUGGUCCCAGCCUCCUCGCUGGCGCCGGUUGGGCAACAUUCCGAGGGGACCGUCCCCUCGGUAAUGGCGAAUGGGACACA [C36U C85A] as the variant, how does the self-cleavage read?
A: 0.732

Q: For GGCCGGCAUGGUCCCAGCCUCCUCGCUGGCGCCGGUUGGGCAACAUUCCGAGGGGACCGUCCCCUCGGUAAUGGCGAAUGGGACUCA [C36U C85U], which self-cleavage is on record?
A: 0.88

Q: With GGCCGGCAUGGUCCCAGCCUCCUCGCUGGCGCCGGUUGGGCAACAUUCCGAGGGGACCGUCCCCUCGGUAAUGGCGAAUGGGACGCA [C36U C85G] as the variant, how does the self-cleavage read?
A: 0.799

Q: Which self-cleavage does the source give for GGCCGGCAUGGUCCCAGCCUCCUCGCUGGCGCCGGUUGGGCAACAUUCCGAGGGGACCGUCCCCUCGGUCAUGGCGAAUGGGACCCA [C36U A70C] here?
A: 0.849

Q: Which self-cleavage does the source give for GGCCGGCAUGGUCCCAGCCUCCUCGCUGGCGCCGGUUGGGCAACAUUCCGAGGGGACCGUCCCCUCGGUGAUGGCGAAUGGGACCCA [C36U A70G] here?
A: 0.969

Q: With GGCCGGCAUGGUCCCAGCCUCCUCGCUGGCGCCGGGUGGGCAACAUUCCGAGGGGACCGUCCCCACGGUAAUGGCGAAUGGGACCCA [C36G U65A] as the variant, how does the self-cleavage read?
A: 0.244

Q: Which self-cleavage does the source give for GGCCGGCAUGGUCCCAGCCUCCUCGCUGGCGCCGGGUGGGCAACAAUCCGAGGGGACCGUCCCCUCGGUAAUGGCGAAUGGGACCCA [C36G U46A] here?
A: 0.415

Q: For GGCCGGCAUGGUCCCAGCCUCCUCGCUGGCGCCGGUUGGGCAACAUUCCGAGUGGACCGUCCCCUCGGUAAUGGCGAAUGGGACCCA [C36U G53U], which self-cleavage is on record?
A: 0.852

Q: For GGCCGGCAUGGUCCCAGCCUCCUCGCUGGCGCCGGGUGGGCAACAUUCCGAGGGGACCGUCCCCUCGGUAAUGGCGAAAGGGACCCA [C36G U79A], which self-cleavage is on record?
A: 0.095

Q: For GGCCGGCAUGGUCCCAGCCUCCUCGCUGGCGCCGGGUGGGCAACAUUCCGAGGGGACCGUCCCCUCGGUAAUGGCGAACGGGACCCA [C36G U79C], which self-cleavage is on record?
A: 0.154

Q: Which self-cleavage does the source give for GGCCGGCAUGGUCCCAGCCUCCUCGCUGGCGCCGGUUGGGCAACAUUCCGAGGGGACCGUCCACUCGGUAAUGGCGAAUGGGACCCA [C36U C63A] here?
A: 0.534

Q: With GGCCGGCAUGGUCCCAGCCUCCUCGCUGGCGCCGGUUGGGCAACAUUCCGAGGGGACCGUCCGCUCGGUAAUGGCGAAUGGGACCCA [C36U C63G] as the variant, how does the self-cleavage read?
A: 0.493

Q: Which self-cleavage does the source give for GGCCGGCAUGGUCCCAGCCUCCUCGCUGGCGCCGGUUGGGCAACAUUCCGAGGUGACCGUCCCCUCGGUAAUGGCGAAUGGGACCCA [C36U G54U] here?
A: 0.796

Q: Which self-cleavage does the source give for GGCCGGCAUGGUCCCAGCCUCCUCGCUGGCGCCGGUUGGGCAACCUUCCGAGGGGACCGUCCCCUCGGUAAUGGCGAAUGGGACCCA [C36U A45C] here?
A: 0.0426

Q: Which self-cleavage does the source give for GGCCGGCAUGGUCCCAGCCUCCUCGCUGGCGCCGGUUGGGCAACUUUCCGAGGGGACCGUCCCCUCGGUAAUGGCGAAUGGGACCCA [C36U A45U] here?
A: 0.658

Q: Which self-cleavage does the source give for GGCCGGCAUGGUCCCAGCCUCCUCGCUGGCGCCGGUUGGGUAACAUUCCGAGGGGACCGUCCCCUCGGUAAUGGCGAAUGGGACCCA [C36U C41U] here?
A: 0.602

Q: For GGCCGGCAUGGUCCCAGCCUCCUCGCUGGCGCCGGUUGGGCAACAUUCCGAGGGGACCGUCCCCUCGGUAAUGGCGAAUGGGACCUA [C36U C86U], which self-cleavage is on record?
A: 0.712

Q: For GGCCGGCAUGGUCCCAGCCUCCUCGCUGGCGCCGGUUCGGCAACAUUCCGAGGGGACCGUCCCCUCGGUAAUGGCGAAUGGGACCCA [C36U G38C], which self-cleavage is on record?
A: 0.113

Q: With GGCCGGCAUGGUCCCAGCCUCCUCGCUGGCGCCGGUUUGGCAACAUUCCGAGGGGACCGUCCCCUCGGUAAUGGCGAAUGGGACCCA [C36U G38U] as the variant, how does the self-cleavage read?
A: 0.147

Q: Which self-cleavage does the source give for GGCCGGCAUGGUCCCAGCCUCCUCGCUGGCGCCGGUUGGGCAACAUUCCGAGGGGACCGUCCCCUCGGUAAUGGCGUAUGGGACCCA [C36U A77U] here?
A: 0.224

Q: Which self-cleavage does the source give for GGCCGGCAUGGUCCCAGCCUCCUCGCUGGCGCCGGUUGGGCAACAUUCCGAGGGGACCGUCCCCUCGGUAAUGGCGCAUGGGACCCA [C36U A77C] here?
A: 0.145

Q: With GGCCGGCAUGGUCCCAGCCUCCUCGCUGGCGCCGGUUGGGCAACAUUCCGAGGGGACCGUCCCCUCGGUAAUGGCGGAUGGGACCCA [C36U A77G] as the variant, how does the self-cleavage read?
A: 0.475

Q: For GGCCGGCAUGGUCCCAGCCUCCUCGCUGGCGCCGGUUGGGCAACAUUCCGAGGGGACCGUCCCCUCGGUAAUGGCGAAUGGGAUCCA [C36U C84U], which self-cleavage is on record?
A: 0.716

Q: With GGCCGGCAUGGUCCCAGCCUCCUCGCUGGCGCCGGUUGGGCAACAUUCCGAGGGGACCGUCCCCUCGGUAAUGGCGAAUGGGAACCA [C36U C84A] as the variant, how does the self-cleavage read?
A: 0.489

Q: Which self-cleavage does the source give for GGCCGGCAUGGUCCCAGCCUCCUCGCUGGCGCCGGUUGGGCAACAUUCCGAGGGGACCGUCCCCUCGGUAAUGGCGAAUGGGAGCCA [C36U C84G] here?
A: 0.324
